Laboratory results reported in publication PMC9482650, “Quantitative fragmentomics allow affinity mapping of interactomes” (Nature Communications, 2022).

Assays:
Experiment in all cases: holdup assay
Design in all cases: key: below the threshold = too weak to quantify, mostly under pKd 3.1 to 4
LAP2, Q96RT1 = biological target: LAP2, Q96RT1
GRIP2_3, Q9C0E4 = biological target: GRIP2_3, Q9C0E4
DLG4_1, P78352 = biological target: DLG4_1, P78352
NHERF3_3, Q5T2W1 = biological target: T1, NHERF3_3, Q5T2W1
T1 sequence (Q5T2W1 238-333, limits assumed, looked up): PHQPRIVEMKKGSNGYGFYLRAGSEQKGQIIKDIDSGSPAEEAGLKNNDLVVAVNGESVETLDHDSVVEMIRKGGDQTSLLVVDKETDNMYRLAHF

LIMK2, P53671 = biological target: LIMK2, P53671
DLG1_3, Q12959 = biological target: DLG1_3, Q12959
CASK, O14936 = biological target: CASK, O14936
APBA1_2, Q02410 = biological target: T2, APBA1_2, Q02410
T2 sequence (Q02410 742-832, limits assumed, looked up): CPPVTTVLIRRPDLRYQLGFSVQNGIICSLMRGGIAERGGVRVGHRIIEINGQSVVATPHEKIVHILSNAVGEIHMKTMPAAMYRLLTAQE

Inadl_4, Q8NI35 = biological target: Inadl_4, Q8NI35
GRIP2_6, Q9C0E4 = biological target: GRIP2_6, Q9C0E4
NHERF4_2, Q86UT5 = biological target: NHERF4_2, Q86UT5
NHERF2_2, Q15599 = biological target: NHERF2_2, Q15599
PDZD7_3, Q9H5P4 = biological target: T3, PDZD7_3, Q9H5P4
T3 sequence (Q9H5P4 857-944, limits assumed, looked up): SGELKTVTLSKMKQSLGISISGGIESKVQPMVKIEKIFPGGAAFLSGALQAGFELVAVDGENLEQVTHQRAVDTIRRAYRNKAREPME

NHERF3_1, Q5T2W1 = biological target: T4, NHERF3_1, Q5T2W1
T4 sequence (Q5T2W1 4-100, limits assumed, looked up): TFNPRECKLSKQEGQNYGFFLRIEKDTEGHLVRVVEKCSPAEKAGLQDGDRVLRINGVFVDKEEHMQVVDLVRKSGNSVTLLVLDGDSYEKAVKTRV

FRMPD3, Q5JV73 = biological target: FRMPD3, Q5JV73
LNX1_1, Q8TBB1 = biological target: LNX1_1, Q8TBB1
FRMPD2_3, Q68DX3 = biological target: FRMPD2_3, Q68DX3
APBA3_1, O96018 = biological target: T5, APBA3_1, O96018
T5 sequence (O96018 389-490, limits assumed, looked up): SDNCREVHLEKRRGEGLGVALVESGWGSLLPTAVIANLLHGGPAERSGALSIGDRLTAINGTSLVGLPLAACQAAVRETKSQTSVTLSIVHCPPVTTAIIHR

LNX2_3, Q8N448 = biological target: T6, LNX2_3, Q8N448
T6 sequence (Q8N448 463-564, limits assumed, looked up): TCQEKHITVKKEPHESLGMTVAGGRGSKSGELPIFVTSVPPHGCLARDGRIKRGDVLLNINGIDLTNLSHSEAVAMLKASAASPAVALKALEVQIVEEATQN

GOPC, Q9HD26 = biological target: GOPC, Q9HD26
LRRC7, Q96NW7 = biological target: T7, LRRC7, Q96NW7
T7 sequence (Q96NW7 1440-1537, limits assumed, looked up): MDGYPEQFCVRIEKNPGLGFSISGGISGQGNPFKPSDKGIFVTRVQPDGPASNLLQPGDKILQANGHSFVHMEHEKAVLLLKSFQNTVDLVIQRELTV

SHANK1, Q9Y566 = biological target: T8, SHANK1, Q9Y566
T8 sequence (Q9Y566 658-767, limits assumed, looked up): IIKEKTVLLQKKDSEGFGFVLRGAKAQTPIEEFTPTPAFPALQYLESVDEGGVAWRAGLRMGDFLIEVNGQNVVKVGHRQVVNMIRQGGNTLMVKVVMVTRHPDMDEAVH

Inadl_8, Q8NI35 = biological target: Inadl_8, Q8NI35
TJP2_1, Q9UDY2 = biological target: TJP2_1, Q9UDY2
DLG3_3, Q92796 = biological target: T9, DLG3_3, Q92796
T9 sequence (Q92796 374-475, limits assumed, looked up): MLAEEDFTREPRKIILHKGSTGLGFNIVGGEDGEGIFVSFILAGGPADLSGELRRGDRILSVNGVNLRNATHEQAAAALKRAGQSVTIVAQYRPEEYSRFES

TJP3_3, O95049 = biological target: T10, TJP3_3, O95049
T10 sequence (O95049 375-456, limits assumed, looked up): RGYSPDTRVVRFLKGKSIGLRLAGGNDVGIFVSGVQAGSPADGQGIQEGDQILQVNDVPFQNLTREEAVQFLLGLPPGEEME

RHPN1, Q8TCX5 = biological target: T11, RHPN1, Q8TCX5
T11 sequence (Q8TCX5 508-602, limits assumed, looked up): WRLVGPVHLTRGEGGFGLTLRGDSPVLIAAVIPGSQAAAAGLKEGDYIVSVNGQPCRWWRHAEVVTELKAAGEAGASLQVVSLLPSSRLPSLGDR

[1] = plain residues with an end cap or a label only (N-terminal biotin on a linker: ahx)
[2] = plain residues with an end cap or a label only (N-terminal biotin on a linker: ttds)

Sequence of Inadl_4, Q8NI35 (Q8NI35 547-651): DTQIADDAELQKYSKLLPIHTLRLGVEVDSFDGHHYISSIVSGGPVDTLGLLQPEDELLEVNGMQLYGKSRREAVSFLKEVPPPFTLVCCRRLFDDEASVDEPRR
Sequence of LIMK2, P53671 (P53671 143-248): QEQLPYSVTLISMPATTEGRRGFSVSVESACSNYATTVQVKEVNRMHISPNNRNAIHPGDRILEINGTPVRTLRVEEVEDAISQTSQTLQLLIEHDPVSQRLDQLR
Sequence of DLG1_3, Q12959 (Q12959 457-571): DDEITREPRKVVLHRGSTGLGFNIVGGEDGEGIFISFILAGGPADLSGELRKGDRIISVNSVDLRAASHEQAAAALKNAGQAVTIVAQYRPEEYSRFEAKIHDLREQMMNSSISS
Sequence of TJP2_1, Q9UDY2 (Q9UDY2 24-128): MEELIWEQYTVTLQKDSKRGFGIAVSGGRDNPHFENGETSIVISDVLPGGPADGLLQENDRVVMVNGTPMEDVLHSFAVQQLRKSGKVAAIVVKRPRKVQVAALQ
Sequence of GRIP2_6, Q9C0E4 (Q9C0E4 648-740): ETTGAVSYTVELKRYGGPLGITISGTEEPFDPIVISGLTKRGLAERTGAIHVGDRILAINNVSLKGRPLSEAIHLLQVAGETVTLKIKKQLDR
Sequence of FRMPD3, Q5JV73 (Q5JV73 12-100): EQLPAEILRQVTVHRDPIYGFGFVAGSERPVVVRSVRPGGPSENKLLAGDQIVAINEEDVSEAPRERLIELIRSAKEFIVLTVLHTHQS
Sequence of LAP2, Q96RT1 (Q96RT1 other isoform, or with tags, fused parts or gaps): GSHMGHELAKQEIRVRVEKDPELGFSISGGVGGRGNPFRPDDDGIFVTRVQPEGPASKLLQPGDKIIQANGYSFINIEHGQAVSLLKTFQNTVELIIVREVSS
Sequence of LNX1_1, Q8TBB1 (Q8TBB1 261-371): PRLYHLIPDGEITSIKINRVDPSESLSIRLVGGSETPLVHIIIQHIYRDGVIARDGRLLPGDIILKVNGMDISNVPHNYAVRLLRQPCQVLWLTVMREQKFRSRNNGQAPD
Sequence of NHERF4_2, Q86UT5 (Q86UT5 220-308): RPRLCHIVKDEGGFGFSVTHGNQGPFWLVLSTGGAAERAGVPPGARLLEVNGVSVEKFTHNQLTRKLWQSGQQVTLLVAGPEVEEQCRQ
Sequence of Inadl_8, Q8NI35 (Q8NI35 1425-1530): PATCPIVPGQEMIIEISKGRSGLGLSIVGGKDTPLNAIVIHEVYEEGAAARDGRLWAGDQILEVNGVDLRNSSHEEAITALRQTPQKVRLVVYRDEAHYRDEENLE
Sequence of GRIP2_3, Q9C0E4 (Q9C0E4 238-339): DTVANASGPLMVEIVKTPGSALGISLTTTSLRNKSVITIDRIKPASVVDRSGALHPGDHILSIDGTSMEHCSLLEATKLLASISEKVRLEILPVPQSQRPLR
Sequence of FRMPD2_3, Q68DX3 (Q68DX3 1073-1166): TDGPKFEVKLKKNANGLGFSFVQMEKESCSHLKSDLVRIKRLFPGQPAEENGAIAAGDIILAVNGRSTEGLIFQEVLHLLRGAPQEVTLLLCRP
Sequence of CASK, O14936 (O14936 487-570): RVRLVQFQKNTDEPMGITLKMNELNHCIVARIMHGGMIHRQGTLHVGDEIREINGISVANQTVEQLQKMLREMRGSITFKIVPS
Sequence of NHERF2_2, Q15599 (Q15599 142-238): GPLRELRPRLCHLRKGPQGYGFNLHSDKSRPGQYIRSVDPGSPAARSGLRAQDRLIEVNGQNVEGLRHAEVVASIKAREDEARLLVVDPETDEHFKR
Sequence of DLG4_1, P78352 (P78352 62-152): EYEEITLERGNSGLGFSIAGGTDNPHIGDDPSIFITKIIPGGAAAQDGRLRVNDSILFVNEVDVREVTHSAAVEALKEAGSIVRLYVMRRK

B1: LNX2, Q8N448 (peptide)
chain: TVICWPGSLV
- pKd (LAP2, Q96RT1; [1]): 3.86
- pKd (GRIP2_3, Q9C0E4; [1]): below the threshold
- pKd (DLG4_1, P78352; [1]): 4.44
- pKd (NHERF3_3, Q5T2W1; [1]): below the threshold
- pKd (LIMK2, P53671; [1]): below the threshold
- pKd (DLG1_3, Q12959; [1]): 4.32
- pKd (CASK, O14936; [1]): below the threshold
- pKd (APBA1_2, Q02410; [1]): 4.39
- pKd (Inadl_4, Q8NI35; [1]): below the threshold
- pKd (GRIP2_6, Q9C0E4; [1]): below the threshold
- pKd (NHERF4_2, Q86UT5; [1]): below the threshold
- pKd (NHERF2_2, Q15599; [1]): below the threshold
- pKd (PDZD7_3, Q9H5P4; [1]): 4.5
- pKd (NHERF3_1, Q5T2W1; [1]): 4.73
- pKd (FRMPD3, Q5JV73; [1]): below the threshold
- pKd (LNX1_1, Q8TBB1; [1]): 4.79
- pKd (FRMPD2_3, Q68DX3; [1]): below the threshold
- pKd (APBA3_1, O96018; [1]): below the threshold
- pKd (LNX2_3, Q8N448; [1]): 3.65
- pKd (GOPC, Q9HD26; [1]): 4.33
- pKd (LRRC7, Q96NW7; [1]): below the threshold
- pKd (SHANK1, Q9Y566; [1]): 3.48
- pKd (Inadl_8, Q8NI35; [1]): 4.57
- pKd (TJP2_1, Q9UDY2; [1]): 3.9
- pKd (DLG3_3, Q92796; [1]): 3.95
- pKd (TJP3_3, O95049; [1]): 3.5
- pKd (RHPN1, Q8TCX5; [1]): 3.85

B2: HPV73-E6, Q82005 (peptide)
chain: SGSRPSATVV
- pKd (LAP2, Q96RT1; [2]): below the threshold
- pKd (GRIP2_3, Q9C0E4; [2]): below the threshold
- pKd (DLG4_1, P78352; [2]): 3.97
- pKd (NHERF3_3, Q5T2W1; [2]): below the threshold
- pKd (LIMK2, P53671; [2]): below the threshold
- pKd (DLG1_3, Q12959; [2]): below the threshold
- pKd (CASK, O14936; [2]): below the threshold
- pKd (APBA1_2, Q02410; [2]): 4.02
- pKd (Inadl_4, Q8NI35; [2]): below the threshold
- pKd (GRIP2_6, Q9C0E4; [2]): below the threshold
- pKd (NHERF4_2, Q86UT5; [2]): below the threshold
- pKd (NHERF2_2, Q15599; [2]): below the threshold
- pKd (PDZD7_3, Q9H5P4; [2]): 4.7
- pKd (NHERF3_1, Q5T2W1; [2]): below the threshold
- pKd (FRMPD3, Q5JV73; [2]): below the threshold
- pKd (LNX1_1, Q8TBB1; [2]): 3.74
- pKd (FRMPD2_3, Q68DX3; [2]): below the threshold
- pKd (APBA3_1, O96018; [2]): below the threshold
- pKd (LNX2_3, Q8N448; [2]): below the threshold
- pKd (GOPC, Q9HD26; [2]): 3.59
- pKd (LRRC7, Q96NW7; [2]): 3.54
- pKd (SHANK1, Q9Y566; [2]): below the threshold
- pKd (Inadl_8, Q8NI35; [2]): 3.53
- pKd (TJP2_1, Q9UDY2; [2]): 3.77
- pKd (DLG3_3, Q92796; [2]): below the threshold
- pKd (TJP3_3, O95049; [2]): below the threshold
- pKd (RHPN1, Q8TCX5; [2]): below the threshold

B3: OTULIN, Q96BN8 (peptide)
chain: PVRVCEETSL
- pKd (LAP2, Q96RT1; [2]): 4.18
- pKd (GRIP2_3, Q9C0E4; [2]): 3.57
- pKd (DLG4_1, P78352; [2]): 4.11
- pKd (NHERF3_3, Q5T2W1; [2]): below the threshold
- pKd (LIMK2, P53671; [2]): below the threshold
- pKd (DLG1_3, Q12959; [2]): 4.14
- pKd (CASK, O14936; [2]): below the threshold
- pKd (APBA1_2, Q02410; [2]): 3.95
- pKd (Inadl_4, Q8NI35; [2]): below the threshold
- pKd (GRIP2_6, Q9C0E4; [2]): 3.53
- pKd (NHERF4_2, Q86UT5; [2]): below the threshold
- pKd (NHERF2_2, Q15599; [2]): 5.21
- pKd (PDZD7_3, Q9H5P4; [2]): 4.41
- pKd (NHERF3_1, Q5T2W1; [2]): 5.92
- pKd (FRMPD3, Q5JV73; [2]): 3.81
- pKd (LNX1_1, Q8TBB1; [2]): below the threshold
- pKd (FRMPD2_3, Q68DX3; [2]): below the threshold
- pKd (APBA3_1, O96018; [2]): 3.51
- pKd (LNX2_3, Q8N448; [2]): below the threshold
- pKd (GOPC, Q9HD26; [2]): 4.44
- pKd (LRRC7, Q96NW7; [2]): below the threshold
- pKd (SHANK1, Q9Y566; [2]): 5.14
- pKd (Inadl_8, Q8NI35; [2]): 3.61
- pKd (TJP2_1, Q9UDY2; [2]): below the threshold
- pKd (DLG3_3, Q92796; [2]): 4.02
- pKd (TJP3_3, O95049; [2]): below the threshold
- pKd (RHPN1, Q8TCX5; [2]): 4.93
